Data: patent US20120316071A1 (published 2012)

Experiments:
Recombinant Human DLL4 [1] = target: T1, Recombinant Human DLL4 (human, UniProt Q9NR61 27-524); experiment: ECL (MSD) 96-well plate assay; plate coated with 30 ug/mL DLL4; 0.02 uM Fab
T1 construct: Bought recombinant protein (R&D Systems Cat#1506-D4/CF); also called delta-like protein 4; Delta-like 4

Recombinant Human DLL4 [2] = target: T1, Recombinant Human DLL4; experiment: ECL (MSD) 96-well plate assay; plate coated with 15 ug/mL DLL4; 0.004 uM Fab
Recombinant Human DLL4 [3] = target: T2, Recombinant Human DLL4 (human, UniProt Q9NR61 27-524); experiment: ELISA, DLL4 coated, 100 nM Fab
T2 construct: Bought recombinant protein (R&D Systems Cat#1506-D4/CF), coated on the plate; also called delta-like protein 4; Delta-like 4

Recombinant Human DLL4 [4] = target: T2, Recombinant Human DLL4; experiment: ECL 96-well plate binding assay, DLL4 immobilised, 10 nM Fab
[5] = target: T3, Recombinant Human DLL4 (delta-like protein 4) (human, UniProt Q9NR61 27-529); experiment: ECL (MSD) multispot assay; Fab 0.1 µM
T3 construct: Bought recombinant protein (R&D Systems Cat#1506-D4/CF); also called rHuman DLL4; Delta-like 4

[6] = target: T3, Recombinant Human DLL4 (delta-like …); experiment: ECL (MSD) multispot assay; Fab 0.01 µM
[7] = target: T4, Recombinant Human DLL4 (delta-like protein 4) (human, UniProt Q9NR61 27-529); experiment: 96-well plate ECL (MSD) binding assay on coated DLL4, 10 nM Fab
T4 construct: Bought recombinant human DLL4 (R&D Systems Cat#1506-D4/CF), coated on the plate; also called rHuman DLL4; Delta-like 4

[8] = target: T4, Recombinant Human DLL4 (delta-like …); experiment: ELISA on coated DLL4, 100 nM Fab

ELISA signal (Recombinant Human DLL4 [3])	ECL signal (Recombinant Human DLL4 [4])	also measured	Binder
–	–	ECL signal (Recombinant Human DLL4 [1]): 163000; Signal/Noise (Recombinant Human DLL4 [1]): 431; ECL signal (Recombinant Human DLL4 [2]): 3610; Signal/Noise (Recombinant Human DLL4 [2]): 24.8	Fab VH1-46_IGHD6-6*01_IGHJ1*01 S104A & L6_IGKJ1*01 (Fab, V domains shown, Heavy chain CDR3 alanine mutant of the parent Fab; Fab format with CH1, kappa CL, His6 and Flag tags from the expression plasmids) VH: QVQLVQSGAEVKKPGASVKVSCKASGYTFTSYYMHWVRQAPGQGLEWMGIINPSGGSTSYAQKFQGRVTMTRDTSTSTVYMELSSLRSEDTAVYYCAREEYSSASAEYFQHWGQGTLVTVSS VL: not shown
0.641	123000	–	Fab VH1-46_IGHD6-6*01_IGHJ1*01 S102A/S103P/S104F/H111F/I51T/N52L/S54T/G56H & L6_IGKJ1*01 (Fab, V domains shown, Tested as Fab expressed in E. coli: VH cloned into plasmid A (CH1 constant region, His6 and Flag tags), kappa VL cloned into plasmid C (kappa CL); also called APFF TLTH; H:APFF TLTH) VH: QVQLVQSGAEVKKPGASVKVSCKASGYTFTSYYMHWVRQAPGQGLEWMGITLPTGHSTSYAQKFQGRVTMTRDTSTSTVYMELSSLRSEDTAVYYCAREEYAPFSAEYFQFWGQGTLVTVSS VL: not shown
–	–	ECL signal [5]: 7000; Signal/Noise [5]: 40.9; ECL signal [6]: 1030; Signal/Noise [6]: 4.9	Fab VH1-46_IGHD6-6*01_IGHJ1*01 & L6_IGKJ1*01 (Fab, V domains shown, Germline 'Hit' Fab; The VH was cloned into Plasmid A (CH1, His6 and Flag tags) and the kappa VL into Plasmid C (kappa CL); expressed in E. coli; also called Parent; parental) VH: QVQLVQSGAEVKKPGASVKVSCKASGYTFTSYYMHWVRQAPGQGLEWMGIINPSGGSTSYAQKFQGRVTMTRDTSTSTVYMELSSLRSEDTAVYYCAREEYSSSSAEYFQHWGQGTLVTVSS VL: not shown
0.219	125000	–	Fab VH1-46_IGHD6-6*01_IGHJ1*01 S102A/S103P/S104F/H111F/I51T/N52L/P53T/S54T/G56H & L6_IGKJ1*01 (Fab, V domains shown, Tested as Fab expressed in E. coli (CH1 with His6/Flag tags from plasmid A; kappa CL from plasmid C); also called APFF TLTTH) VH: QVQLVQSGAEVKKPGASVKVSCKASGYTFTSYYMHWVRQAPGQGLEWMGITLTTGHSTSYAQKFQGRVTMTRDTSTSTVYMELSSLRSEDTAVYYCAREEYAPFSAEYFQFWGQGTLVTVSS VL: not shown
0.021	114000	–	Fab VH1-46_IGHD6-6*01_IGHJ1*01 S102A/S103P/S104F/H111F/I51T/N52L/P53N/S54T/G56H & L6_IGKJ1*01 (Fab, V domains shown, Tested as Fab expressed in E. coli (CH1 with His6/Flag tags from plasmid A; kappa CL from plasmid C); also called APFF TLNTH) VH: QVQLVQSGAEVKKPGASVKVSCKASGYTFTSYYMHWVRQAPGQGLEWMGITLNTGHSTSYAQKFQGRVTMTRDTSTSTVYMELSSLRSEDTAVYYCAREEYAPFSAEYFQFWGQGTLVTVSS VL: not shown
–	–	ECL signal [7]: 155000; ELISA signal [8]: 0.647	Fab VH1-46_IGHD6-6*01_IGHJ1*01 S102A/S103P/S104F/H111F/I51H/N52L/S54T/G56H (APFF HLTH) & L6_IGKJ1*01 (Fab, V domains shown, Fab made in E. coli; CH1 with tags and kappa CL are not included) VH: QVQLVQSGAEVKKPGASVKVSCKASGYTFTSYYMHWVRQAPGQGLEWMGIHLPTGHSTSYAQKFQGRVTMTRDTSTSTVYMELSSLRSEDTAVYYCAREEYAPFSAEYFQFWGQGTLVTVSS VL: not shown
0.341	105000	–	Fab VH1-46_IGHD6-6*01_IGHJ1*01 S102A/S103P/S104F/H111F/I51T/N52L/P53M/S54T/G56H & L6_IGKJ1*01 (Fab, V domains shown, Tested as Fab expressed in E. coli (CH1 with His6/Flag tags from plasmid A; kappa CL from plasmid C); also called APFF TLMTH) VH: QVQLVQSGAEVKKPGASVKVSCKASGYTFTSYYMHWVRQAPGQGLEWMGITLMTGHSTSYAQKFQGRVTMTRDTSTSTVYMELSSLRSEDTAVYYCAREEYAPFSAEYFQFWGQGTLVTVSS VL: not shown
–	–	ECL signal [7]: 143000; ELISA signal [8]: 0.62	Fab VH1-46_IGHD6-6*01_IGHJ1*01 S102A/S103P/S104F/H111F/I51A/N52L/S54T/G56H (APFF ALTH) & L6_IGKJ1*01 (Fab, V domains shown, Fab made in E. coli; CH1 with tags and kappa CL are not included) VH: QVQLVQSGAEVKKPGASVKVSCKASGYTFTSYYMHWVRQAPGQGLEWMGIALPTGHSTSYAQKFQGRVTMTRDTSTSTVYMELSSLRSEDTAVYYCAREEYAPFSAEYFQFWGQGTLVTVSS VL: not shown
0.017	91500	–	Fab VH1-46_IGHD6-6*01_IGHJ1*01 S102A/S103P/S104F/H111F/I51T/N52L/P53E/S54T/G56H & L6_IGKJ1*01 (Fab, V domains shown, Tested as Fab expressed in E. coli (CH1 with His6/Flag tags from plasmid A; kappa CL from plasmid C); also called APFF TLETH) VH: QVQLVQSGAEVKKPGASVKVSCKASGYTFTSYYMHWVRQAPGQGLEWMGITLETGHSTSYAQKFQGRVTMTRDTSTSTVYMELSSLRSEDTAVYYCAREEYAPFSAEYFQFWGQGTLVTVSS VL: not shown
0.433	126000	–	Fab VH1-46_IGHD6-6*01_IGHJ1*01 S102A/S103P/S104F/H111F/I51T/N52L/P53W/S54T/G56H & L6_IGKJ1*01 (Fab, V domains shown, Tested as Fab expressed in E. coli (CH1 with His6/Flag tags from plasmid A; kappa CL from plasmid C); also called APFF TLWTH) VH: QVQLVQSGAEVKKPGASVKVSCKASGYTFTSYYMHWVRQAPGQGLEWMGITLWTGHSTSYAQKFQGRVTMTRDTSTSTVYMELSSLRSEDTAVYYCAREEYAPFSAEYFQFWGQGTLVTVSS VL: not shown
0.274	99500	–	Fab VH1-46_IGHD6-6*01_IGHJ1*01 S102A/S103P/S104F/H111F/I51T/N52L/P53Y/S54T/G56H & L6_IGKJ1*01 (Fab, V domains shown, Tested as Fab expressed in E. coli (CH1 with His6/Flag tags from plasmid A; kappa CL from plasmid C); also called APFF TLYTH) VH: QVQLVQSGAEVKKPGASVKVSCKASGYTFTSYYMHWVRQAPGQGLEWMGITLYTGHSTSYAQKFQGRVTMTRDTSTSTVYMELSSLRSEDTAVYYCAREEYAPFSAEYFQFWGQGTLVTVSS VL: not shown
0.07	63200	–	Fab VH1-46_IGHD6-6*01_IGHJ1*01 S102A/S103P/S104F/H111F/I51T/N52L/P53R/S54T/G56H & L6_IGKJ1*01 (Fab, V domains shown, Tested as Fab expressed in E. coli (CH1 with His6/Flag tags from plasmid A; kappa CL from plasmid C); also called APFF TLRTH) VH: QVQLVQSGAEVKKPGASVKVSCKASGYTFTSYYMHWVRQAPGQGLEWMGITLRTGHSTSYAQKFQGRVTMTRDTSTSTVYMELSSLRSEDTAVYYCAREEYAPFSAEYFQFWGQGTLVTVSS VL: not shown
